Here are results for 2 molecules from EP4818204A1 (Nanjing Leads Biolabs Co., Ltd., dated 2026).

A word on the Kd: it is the free concentration of one partner at which half of the binding sites on the other are occupied at equilibrium, for simple one-to-one binding. Lower therefore signals a tighter complex. Usually koff stands for the rate constant with which the complex falls apart. Read a high koff as a short-lived complex. In general, kon refers to the rate constant with which the complex forms.

Assay [1] deals with T1, human BMP2 protein (human, UniProt P12643 283-396).
T1 construct: Bought
Kind of assay: ELISA, coated protein, antibody at 4 µg/mL.

In assay [2] the target is T2, human Activin A protein (human, UniProt P08476 311-426).
T2 construct: Bought; Activin A is by nature a dimer of inhibin beta A chains
T2 sequence (looked up): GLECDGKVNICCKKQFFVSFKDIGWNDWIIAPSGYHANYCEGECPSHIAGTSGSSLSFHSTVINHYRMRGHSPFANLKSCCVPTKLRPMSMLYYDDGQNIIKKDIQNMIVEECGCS
As to the kind of experiment: ELISA, coated protein, antibody at 4 µg/mL. Background: In an ELISA, binding on a coated surface is turned into a signal by an enzyme label.

Assay [3] concerns the target T3, human Activin B protein (human, UniProt P09529 293-407).
T3 construct: Bought; Activin B is by nature a dimer of inhibin beta B chains
T3 sequence (looked up): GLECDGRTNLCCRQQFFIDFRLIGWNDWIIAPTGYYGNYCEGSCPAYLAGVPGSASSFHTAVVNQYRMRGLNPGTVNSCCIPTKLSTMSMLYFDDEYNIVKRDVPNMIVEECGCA
Kind of assay: ELISA, coated protein, antibody at 4 µg/mL.

Assay [4] addresses T4, human GDF1 protein (human, UniProt P27539 254-372, limits assumed).
T4 construct: Bought
T4 sequence (looked up): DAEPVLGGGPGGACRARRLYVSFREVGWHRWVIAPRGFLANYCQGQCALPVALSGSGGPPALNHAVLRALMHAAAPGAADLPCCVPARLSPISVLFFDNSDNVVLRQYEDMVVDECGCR
Kind of assay: ELISA, coated protein, antibody at 4 µg/mL.

Assay [5] deals with T5, human GDF2 protein (human, UniProt Q9UK05 320-429).
T5 construct: Bought
T5 sequence (looked up): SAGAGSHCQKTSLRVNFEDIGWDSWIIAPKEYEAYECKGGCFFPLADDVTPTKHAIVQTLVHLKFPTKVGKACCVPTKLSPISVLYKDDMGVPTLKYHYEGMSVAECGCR
As to the kind of experiment: ELISA, coated protein, antibody at 4 µg/mL.

The target of assay [6] is T6, human GDF3 protein (human, UniProt Q9NR23 251-364, limits assumed).
T6 construct: Bought
T6 sequence (looked up): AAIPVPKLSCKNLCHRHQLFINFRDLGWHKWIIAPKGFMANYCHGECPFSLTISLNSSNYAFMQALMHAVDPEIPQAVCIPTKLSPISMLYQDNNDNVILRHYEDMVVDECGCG
As to the kind of experiment: ELISA, coated protein, antibody at 4 µg/mL.

In assay [7] the target is T7, human BMP4 protein (human, UniProt P12644 293-408).
T7 construct: Bought
T7 sequence (looked up): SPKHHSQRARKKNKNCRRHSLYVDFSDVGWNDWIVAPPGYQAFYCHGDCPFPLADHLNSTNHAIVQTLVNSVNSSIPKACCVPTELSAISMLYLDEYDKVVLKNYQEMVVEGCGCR
Kind of assay: ELISA, coated protein, antibody at 4 µg/mL.

For assay [8], the target named is T8, human GDF11 protein (human, UniProt O95390 299-407).
T8 construct: Bought
T8 sequence (looked up): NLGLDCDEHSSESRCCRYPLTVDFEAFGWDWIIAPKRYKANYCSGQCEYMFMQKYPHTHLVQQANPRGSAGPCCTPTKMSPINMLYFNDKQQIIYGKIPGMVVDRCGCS
As to the kind of experiment: ELISA, coated protein, antibody at 4 µg/mL.

Another assay concerns the target T9, human GDNF protein (human, UniProt P39905 78-211).
T9 construct: Bought
T9 sequence (looked up): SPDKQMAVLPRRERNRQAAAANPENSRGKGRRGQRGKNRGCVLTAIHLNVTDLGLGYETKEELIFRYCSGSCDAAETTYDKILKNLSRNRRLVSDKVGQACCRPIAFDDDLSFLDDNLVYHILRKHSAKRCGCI
Kind of assay: ELISA, coated protein, antibody at 4 µg/mL.

Assay [9] deals with T10, human TGFβ1 protein (human, UniProt P01137 279-390).
T10 construct: Bought
As to the kind of experiment: ELISA, coated protein, antibody at 4 µg/mL.

In assay [10] the target is T11, human GFRα1 protein (human, UniProt P56159 25-429, limits assumed).
T11 construct: Bought
T11 sequence (looked up): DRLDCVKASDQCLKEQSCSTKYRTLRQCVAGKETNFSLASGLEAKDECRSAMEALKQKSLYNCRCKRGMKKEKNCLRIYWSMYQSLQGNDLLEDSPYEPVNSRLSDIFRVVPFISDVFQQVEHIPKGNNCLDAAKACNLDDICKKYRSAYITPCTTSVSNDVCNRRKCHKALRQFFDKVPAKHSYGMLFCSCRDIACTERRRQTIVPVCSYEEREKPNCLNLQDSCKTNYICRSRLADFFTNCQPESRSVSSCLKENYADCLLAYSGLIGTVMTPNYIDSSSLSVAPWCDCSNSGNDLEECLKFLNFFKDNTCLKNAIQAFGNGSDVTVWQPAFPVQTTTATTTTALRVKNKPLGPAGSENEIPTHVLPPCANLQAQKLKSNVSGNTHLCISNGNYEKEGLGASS
Kind of assay: ELISA, coated protein, antibody at 4 µg/mL.

In assay [11] the target is T1, human BMP2 protein. Kind of assay: ELISA, coated protein, antibody at 4 µg/mL. This is another data set of the same source.
Assay [12] deals with T2, human Activin A protein. Kind of assay: ELISA, coated protein, antibody at 4 µg/mL. The source holds these as a separate data set.
The target of assay [13] is T3, human Activin B protein. As to the kind of experiment: ELISA, coated protein, antibody at 4 µg/mL. The source holds these as a separate data set.
The next assay concerns the target T12, Human GDF15 protein (human, UniProt Q99988 197-308).
T12 construct: Natural GDF15 is said to be a disulfide-linked homodimer; also called Human-GDF15-his
T12 sequence: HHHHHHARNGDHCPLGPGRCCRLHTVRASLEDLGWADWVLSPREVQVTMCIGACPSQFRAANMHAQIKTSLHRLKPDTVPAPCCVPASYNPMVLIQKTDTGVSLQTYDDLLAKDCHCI
Kind of assay: ELISA, coated protein, antibody at 4 µg/mL.

Assay [14] has as its target human AMH protein (human) (UniProt P03971). As to the kind of experiment: ELISA, coated protein, antibody at 4 µg/mL.
Assay [15] has as its target human GDF8 protein (human) (UniProt O14793). As to the kind of experiment: ELISA, coated protein, antibody at 4 µg/mL.
For assay [16], the target named is T4, human GDF1 protein. As to the kind of experiment: ELISA, coated protein.
Assay [17] deals with T5, human GDF2 protein. Kind of assay: ELISA, coated protein.
Assay [18] deals with T6, human GDF3 protein. As to the kind of experiment: ELISA, coated protein.
The target of assay [19] is T7, human BMP4 protein. Kind of assay: ELISA, coated protein.
Assay [20] deals with T8, human GDF11 protein. Kind of assay: ELISA, coated protein.
Assay [21] addresses T10, human TGFβ1 protein. As to the kind of experiment: ELISA, coated protein.
The target of assay [22] is T11, human GFRα1 protein. Kind of assay: ELISA, coated protein.
The target of assay [23] is T1, human BMP2 protein. As to the kind of experiment: ELISA, coated protein.
In assay [24] the target is T2, human Activin A protein. Kind of assay: ELISA, coated protein.
Assay [25] deals with T3, human Activin B protein. Kind of assay: ELISA, coated protein.
The target of assay [26] is T4, human GDF1 protein. As to the kind of experiment: ELISA, coated protein, antibody at 4 µg/mL. The source holds these as a separate data set.
Assay [27] deals with T5, human GDF2 protein. As to the kind of experiment: ELISA, coated protein, antibody at 4 µg/mL. The source holds these as a separate data set.
The target in assay [28] is T6, human GDF3 protein. As to the kind of experiment: ELISA, coated protein, antibody at 4 µg/mL. The source holds these as a separate data set.
For assay [29], the target named is T7, human BMP4 protein. Kind of assay: ELISA, coated protein, antibody at 4 µg/mL. The source holds these as a separate data set.
For assay [30], the target named is T8, human GDF11 protein. As to the kind of experiment: ELISA, coated protein, antibody at 4 µg/mL. The source holds these as a separate data set.
The target in assay [31] is T10, human TGFβ1 protein. As to the kind of experiment: ELISA, coated protein, antibody at 4 µg/mL. The source holds these as a separate data set.
Assay [32] addresses T11, human GFRα1 protein. Kind of assay: ELISA, coated protein, antibody at 4 µg/mL. This is another data set of the same source.
Assay [33] has as its target T1, human BMP2 protein. As to the kind of experiment: ELISA, coated protein, antibody at 4 µg/mL. This is another data set of the same source.
In assay [34] the target is T2, human Activin A protein. Kind of assay: ELISA, coated protein, antibody at 4 µg/mL. This is another data set of the same source.
In assay [35] the target is T3, human Activin B protein. As to the kind of experiment: ELISA, coated protein, antibody at 4 µg/mL. This is another data set of the same source.
The target in another assay is T13, human FcRn protein (human, UniProt P55899 24-297).
T13 construct: Bought, loaded on a streptavidin (SA) sensor; FcRn is by nature a heterodimer with beta-2-microglobulin
Kind of assay: BLI (Octet RED96e), FcRn on SA sensor, antibody as analyte, binding and dissociation at pH 6.0, 1:1 model. For orientation: Biolayer interferometry detects binding as a change in optical thickness at a sensor tip.

Like-named read-outs stand apart in the source and are kept apart here.

T10 sequence (P01137 279-390 limits assumed): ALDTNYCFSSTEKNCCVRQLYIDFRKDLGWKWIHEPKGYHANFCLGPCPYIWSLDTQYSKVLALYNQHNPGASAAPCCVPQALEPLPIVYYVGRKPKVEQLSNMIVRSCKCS
T13 sequence (P55899 24-297 limits assumed, form in doubt): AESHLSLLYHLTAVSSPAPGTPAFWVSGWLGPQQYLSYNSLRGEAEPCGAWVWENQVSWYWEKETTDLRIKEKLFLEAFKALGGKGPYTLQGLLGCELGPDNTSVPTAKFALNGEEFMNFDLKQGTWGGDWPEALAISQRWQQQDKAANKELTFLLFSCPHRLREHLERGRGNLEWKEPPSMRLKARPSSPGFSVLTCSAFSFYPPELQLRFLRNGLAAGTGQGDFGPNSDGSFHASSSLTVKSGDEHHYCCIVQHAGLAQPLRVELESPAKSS
T1 sequence (P12643 283-396 limits assumed): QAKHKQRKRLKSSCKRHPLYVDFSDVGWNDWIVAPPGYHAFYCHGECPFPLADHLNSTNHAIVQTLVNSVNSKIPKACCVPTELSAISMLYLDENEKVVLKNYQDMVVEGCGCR

For Ponsegromab (antibody), the OD value (OD 450 nm-620 nm) with human BMP2 protein [1] came to 0.265; in the assay with human Activin A protein [2] it was 0.0698; in the assay with human Activin B protein [3], 0.187; in the assay with human GDF1 protein [4], 0.0818; with human GDF2 protein [5] it was 0.555; with human GDF3 protein [6], 0.0676. Besides, the OD value (OD 450 nm-620 nm) turned out to be 0.0639 with human BMP4 protein [7]; 0.0375 in the assay with human GDF11 protein [8]; 1.21 in the assay with human GDNF protein; 0.129 with human TGFβ1 protein [9]; 0.124 with human GFRα1 protein [10]; 0.227 with human BMP2 protein [11]. In addition, the OD value (OD 450 nm-620 nm) with human Activin A protein [12] was determined as 0.0863; with human Activin B protein [13], 0.156; in the assay with Human GDF15 protein, 3.33; in assay [14], 0.0754; in assay [15], 0.0755.

B1: hu19C4C7-YTE (antibody, human IgG1, kappa)
heavy: QVQLVQSGAEVKKPGSSVKVSCKASGYSFTGYIMNWVRQAPGQSLEWMGDIDPYYGGPNYNQKFQGRVTITVDKSTSTAYMELSSLRSEDTAVYYCSRRDYNYGSFAYWGQGTLVTVSSASTKGPSVFPLAPSSKSTSGGTAALGCLVKDYFPEPVTVSWNSGALTSGVHTFPAVLQSSGLYSLSSVVTVPSSSLGTQTYICNVNHKPSNTKVDKKVEPKSCDKTHTCPPCPAPEAAGAPSVFLFPPKPKDTLYITREPEVTCVVVDVSHEDPEVKFNWYVDGVEVHNAKTKPREEQYNSTYRVVSVLTVLHQDWLNGKEYKCKVSNKALPAPIEKTISKAKGQPREPQVYTLPPSREEMTKNQVSLTCLVKGFYPSDIAVEWESNGQPENNYKTTPPVLDSDGSFFLYSKLTVDKSRWQQGNVFSCSVMHEALHNHYTQKSLSLSPGK
light: QIVLTQSPATLSLSPGERATLSCRASSSVNYMHWYQQKPGQAPRPLIYATSNLATGIPARFSGSGSGTDYTLTISSLEPEDFAVYYCQQWSDNPPTFGQGTKLEIKRTVAAPSVFIFPPSDEQLKSGTASVVCLLNNFYPREAKVQWKVDNALQSGNSQESVTEQDSKDSTYSLSSTLTLSKADYEKHKVYACEVTHQGLSSPVTKSFNRGEC
notes: Hu19C4C7 with human IgG1 constant region carrying L234A, L235A, G237A, M252Y, S254T, T256E (EU numbering); also called hu19C4C7-YTE-IgG1-mut
Regarding B1, the binding result in the assay with human GDF1 protein [16], in the assay with human GDF2 protein [17], with human GDF3 protein [18], with human BMP4 protein [19], in the assay with human GDF11 protein [20] and with human TGFβ1 protein [21] was “no binding (tested: 4 µg/mL)” in each case. The binding result with human GFRα1 protein [22], in the assay with human BMP2 protein [23], with human Activin A protein [24] and in the assay with human Activin B protein [25] was “no binding (tested: 4 µg/mL)” throughout. Further, the OD value (OD 450 nm-620 nm) with human GDNF protein was 0.296; in the assay with Human GDF15 protein, 2.39; in assay [14] it was 0.0409; in [15], 0.0508. Moreover, the OD value with human GDF1 protein [26] came out at 0.144 OD 450 nm-620 nm; with human GDF2 protein [27] it was 0.0643 OD 450 nm-620 nm; in the assay with human GDF3 protein [28], 0.0907 OD 450 nm-620 nm; in the assay with human BMP4 protein [29] it was 0.0595 OD 450 nm-620 nm; in the assay with human GDF11 protein [30] it was 0.0709 OD 450 nm-620 nm; with human TGFβ1 protein [31], 0.114 OD 450 nm-620 nm. Moreover, the OD value turned out to be 0.132 OD 450 nm-620 nm with human GFRα1 protein [32], 0.0973 OD 450 nm-620 nm in the assay with human BMP2 protein [33], 0.0582 OD 450 nm-620 nm with human Activin A protein [34] and 0.114 OD 450 nm-620 nm in the assay with human Activin B protein [35]. In addition, the affinity with human FcRn protein, expressed as Kd, was 2.89 nM. This molecule returned a koff with human FcRn protein of 0.00257 s⁻¹. This molecule displayed a kon with human FcRn protein of 889000 M⁻¹ s⁻¹.
